Reference: patent publication US4978608
Read-outs that look alike come from different tables or passages of the source.

How the values were obtained:
[1] = test system: single-stranded DNA binding protein (SSB, BP), immobilized (Escherichia coli); conditions: BP 0.2 mg/ml on Immobilon membrane; 10-1000 pg DNA in 10 mg/ml BSA; 80% captured with BP at 1 mg/ml
[2] = test system: single-stranded DNA binding protein (SSB, BP), immobilized (Escherichia coli); conditions: BP 50 ug/ml adsorbed on nitrocellulose, BSA blocked; sample in 10 mg/ml BSA

Q: What does the source list for 32P-labeled single-stranded DNA?
A: binding signal [1]: 70 % captured; binding signal [2]: 36 % captured
